Reference: US20240141059A1 (Bristol-Myers Squibb, published 2024)
“And” between values parts separate entries of the source, which are not always exact repeats. Equal values may be shown once.

B1: CD73.3-IgG1.1 (antibody, V domains shown)
VH: EVQLVESGGGLVQPGRSLRLSCAASGFTFDDYAMHWVRQAPGKGLEWVSGISWKSGSIGYADSVKGRFTISRDNAKNSLYLQMNSLRAEDTVLYYCVKGYYVILTGLDYWGQGTLVTVSS
VL: not shown
notes: also called CD73.3-IgG1.1f; 3-Vh-hHC-IgG1.1f/4C3Vk1
B2: CD73.10-IgG2-C219S (antibody)
heavy: QVQLVESGGGVVQPGRSLRLSCAASGFTFSNYGMHWVRQAPGKGLEWVAVIWYDESNKYYPDSVKGRFTISRDNSKNTLYLQMNSLRAEDTAVYYCARGGSSWYPDSFDIWGQGTMVTVSSASTKGPSVFPLAPCSRSTSESTAALGCLVKDYFPEPVTVSWNSGALTSGVHTFPAVLQSSGLYSLSSVVTVPSSNFGTQTYTCNVDHKPSNTKVDKTVERKSCVECPPCPAPPVAGPSVFLFPPKPKDTLMISRTPEVTCVVVDVSHEDPEVQFNWYVDGVEVHNAKTKPREEQFNSTFRVVSVLTVVHQDWLNGKEYKCKVSNKGLPAPIEKTISKTKGQPREPQVYTLPPSREEMTKNQVSLTCLVKGFYPSDIAVEWESNGQPENNYKTTPPMLDSDGSFFLYSKLTVDKSRWQQGNVFSCSVMHEALHNHYTQKSLSLSPG
light: not shown
notes: also called CD73.10-IgG2CS; CD73.10-Vh-hHC-IgG2-C219S
B3: CD73.10-IgG2-C219S-IgG1.1 (antibody)
heavy: QVQLVESGGGVVQPGRSLRLSCAASGFTFSNYGMHWVRQAPGKGLEWVAVIWYDESNKYYPDSVKGRFTISRDNSKNTLYLQMNSLRAEDTAVYYCARGGSSWYPDSFDIWGQGTMVTVSSASTKGPSVFPLAPCSRSTSESTAALGCLVKDYFPEPVTVSWNSGALTSGVHTFPAVLQSSGLYSLSSVVTVPSSNFGTQTYTCNVDHKPSNTKVDKTVERKSCVECPPCPAPPVAGPSVFLFPPKPKDTLMISRTPEVTCVVVDVSHEDPEVKFNWYVDGVEVHNAKTKPREEQYNSTYRVVSVLTVLHQDWLNGKEYKCKVSNKALPSSIEKTISKAKGQPREPQVYTLPPSREEMTKNQVSLTCLVKGFYPSDIAVEWESNGQPENNYKTTPPMLDSDGSFFLYSKLTVDKSRWQQGNVFSCSVMHEALHNHYTQKSLSLSPG
light: not shown
notes: also called CD73.10-IgG2CS-IgG1.1f; CD73.10-Vh-hHC-IgG2-C219S-IgG1.1f
B4: 3h56-269-IgG1.1f (Fc fusion)
chain: EVQLLESGGGLVQPGGSLRLSCAASGFTFRDYEMWWVRQAPGKGLERVSAINPQGTRTYYADSVKGRFTISRDNSKNTLYLQMNSLRAEDTAVYYCAKLPFRFSDRGQGTLVTVSSASTEPKSCDKTHTCPPCPAPEAEGAPSVFLFPPKPKDTLMISRTPEVTCVVVDVSHEDPEVKFNWYVDGVEVHNAKTKPREEQYNSTYRVVSVLTVLHQDWLNGKEYKCKVSNKALPSSIEKTISKAKGQPREPQVYTLPPSREEMTKNQVSLTCLVKGFYPSDIAVEWESNGQPENNYKTTPPVLDSDGSFFLYSKLTVDKSRWQQGNVFSCSVMHEALHNHYTQKSLSLSPGK
notes: dAb-Fc fusion protein

What was measured:
human CD73 on cells [1] = target: T1, human CD73 on cells (human, UniProt P21589 27-549); test: cell-based or functional assay
T1 sequence (looked up): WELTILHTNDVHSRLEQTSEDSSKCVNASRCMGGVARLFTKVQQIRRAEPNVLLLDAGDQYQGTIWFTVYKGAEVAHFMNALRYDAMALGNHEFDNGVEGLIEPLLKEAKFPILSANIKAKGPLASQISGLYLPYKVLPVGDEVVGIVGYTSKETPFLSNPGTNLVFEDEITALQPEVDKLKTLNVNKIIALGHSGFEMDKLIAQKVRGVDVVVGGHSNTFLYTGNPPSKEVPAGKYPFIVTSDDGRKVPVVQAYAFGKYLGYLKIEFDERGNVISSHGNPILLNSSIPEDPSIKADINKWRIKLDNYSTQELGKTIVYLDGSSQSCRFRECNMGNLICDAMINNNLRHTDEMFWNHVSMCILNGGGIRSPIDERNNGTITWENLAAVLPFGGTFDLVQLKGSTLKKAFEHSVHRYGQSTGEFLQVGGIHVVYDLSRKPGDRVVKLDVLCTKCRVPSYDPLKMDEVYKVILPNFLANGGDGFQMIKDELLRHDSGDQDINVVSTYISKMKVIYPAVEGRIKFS

hCD73-his [2] = target: T2, hCD73-his (human, UniProt P21589 26-546); test: DLS, target:mAb 1:1, 4 uM + 4 uM; unit from the text
T2 construct: range 26-546; also called full length extracellular domain of human-CD73
T2 sequence (looked up): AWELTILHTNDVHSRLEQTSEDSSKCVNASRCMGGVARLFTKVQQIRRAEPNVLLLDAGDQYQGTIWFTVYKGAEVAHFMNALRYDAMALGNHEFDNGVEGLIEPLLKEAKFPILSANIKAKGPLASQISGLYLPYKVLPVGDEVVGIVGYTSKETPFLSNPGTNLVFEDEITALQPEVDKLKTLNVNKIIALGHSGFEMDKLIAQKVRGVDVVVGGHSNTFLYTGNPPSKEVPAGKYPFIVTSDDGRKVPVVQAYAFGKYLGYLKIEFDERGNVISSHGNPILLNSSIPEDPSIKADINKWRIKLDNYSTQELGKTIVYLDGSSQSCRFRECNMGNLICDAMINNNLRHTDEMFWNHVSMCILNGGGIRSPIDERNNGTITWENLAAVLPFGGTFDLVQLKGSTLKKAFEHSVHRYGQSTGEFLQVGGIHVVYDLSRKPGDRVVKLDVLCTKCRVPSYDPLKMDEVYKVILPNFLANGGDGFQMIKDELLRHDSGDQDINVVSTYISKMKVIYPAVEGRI
Protocol: (§1) The structure and oligomeric state of CD73/antibody complexes in solution were examined by SEC-MALS and DLS.
(§2) Dynamic light scattering (DLS) studies were performed on a Wyatt DynaPro® plate reader in 384 well plates at 25° C. Experimental parameters were 20 acquisitions of 5 s each per measurement, and measurements were recorded in quadruplicate, with the average and standard deviation reported. Intensity autocorrelation functions were fitted using the “Regularization” algorithm in the Dynamics® software (Wyatt Technologies®).

hCD73-his [3] = target: T2, hCD73-his; test: SEC-MALS, target:mAb 1:1, 4 uM + 4 uM
Protocol: as §1
(§3) The oligomeric state of CD73/antibody complexes were examined by size-exclusion chromatography coupled to an in-line multi-angle light scattering detector (SEC-MALS). Isocratic separations were performed on a Shodex PROTEIN KW-803 column connected to an Prominence Shimadzu UFLC in buffer containing 200 mM K₂HPO₄, 150 mM NaCl, pH 6.8, containing 0.02% Na azide (0.1 μm filtered) running at 0.5 mL/min. Samples were injected onto the column using a SIL-20AC Prominence Shimadzu® autosampler, and data were obtained from three online detectors connected in series: a Prominence SPD-20AD diode array UV/vis spectrophotometer followed by a Wyatt miniDAWN™ TREOS Multi-Angle Light Scattering Detector then a Wyatt Optilab T-rEX Refractive Index Detector® instrument. Data were collected and analyzed using Astra® (Wyatt) and Labsolutions® (Shimadzu) software.

N-hCD73-his [4] = target: T3, N-hCD73-his (human, UniProt P21589 26-336, limits assumed); test: SEC-MALS, target:mAb 2:1, 8 uM + 4 uM
T3 construct: monomeric in solution by SEC-MALS; also called N-terminal domain of hCD73
T3 sequence (looked up): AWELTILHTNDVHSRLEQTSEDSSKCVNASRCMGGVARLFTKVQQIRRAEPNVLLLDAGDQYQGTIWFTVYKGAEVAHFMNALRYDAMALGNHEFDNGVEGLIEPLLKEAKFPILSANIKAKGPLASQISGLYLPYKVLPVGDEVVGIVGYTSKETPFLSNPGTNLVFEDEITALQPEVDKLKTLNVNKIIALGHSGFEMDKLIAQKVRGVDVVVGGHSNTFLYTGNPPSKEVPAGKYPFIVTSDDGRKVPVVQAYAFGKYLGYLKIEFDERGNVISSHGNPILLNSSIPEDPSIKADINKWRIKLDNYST
Protocol: as §1, §3

N-hCD73-his [5] = target: T3, N-hCD73-his; test: DLS, target:mAb 2:1, 8 uM + 4 uM; unit from the text
Protocol: as §1, §2

human CD73 on cells [6] = target: T1, human CD73 on cells; test: cell-based or functional assay; remark: listed apart in the source
N-hCD73-his [7] = target: T3, N-hCD73-his; test: SPR, mAb captured on protein A
Protocol: The affinity of the antibodies for human CD73 was measured to determine whether the change of the constant region affects them. The affinities were determined by Surface Plasmon Resonance (SPR) as follows. […] For these experiments, protein A (Pierce) was immobilized to a density of 3000-4000 RU on flow cells 1˜4 of a CMS sensor chip (GE Healthcare) using standard ethyl(dimethylaminopropyl) carbodiimide (EDC)/N-hydroxysuccinimide (NHS) chemistry, with ethanolamine blocking, in a running buffer of 0.01 M HEPES pH 7.4, 0.15 M NaCl, 3 mM EDTA, 0.005% v/v tween 20. […] The running buffer for the kinetic experiments was 10 mM sodium phosphate, 130 mM sodium chloride, 0.05% tween 20, pH 7.1. The surfaces were regenerated after each cycle using two 30 s pulses of 10 mM glycine pH 1.5 at a flow rate of 30 μl/min. Sensogram data was double-referenced and then fitted to a 1:1 Langmuir model using Biacore® T100 evaluation software v2.0.4, to determine the association rate constant (ka), the dissociation rate constant (kd), and the equilibrium dissociation constant (KD).

hCD73-his [8] = target: T2, hCD73-his; test: DLS, target:mAb 1:1, 2.5 uM + 2.5 uM; unit from the text
Protocol: as §1, §2

hCD73-his [9] = target: T2, hCD73-his; test: SEC-MALS, target:mAb 1:1, 2.5 uM + 2.5 uM
Protocol: as §1, §3

hCD40-Fc = target: T4, hCD40-Fc (human, UniProt P25942 21-193); test: SPR, hCD40-Fc immobilized, dAb-Fc analyte, avidity
T4 construct: Immobilized on the sensor chip; not shown: Fc part of hCD40-Fc not described
T4 sequence (P25942 21-193): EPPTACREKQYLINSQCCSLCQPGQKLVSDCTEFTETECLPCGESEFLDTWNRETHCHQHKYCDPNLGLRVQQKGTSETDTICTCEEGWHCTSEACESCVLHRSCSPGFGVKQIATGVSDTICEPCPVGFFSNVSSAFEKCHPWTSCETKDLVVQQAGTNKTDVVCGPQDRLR

Row | Binder | % internalization, H228 cells (human CD73 on cells [1]) | Rh (hCD73-his [2]) | MW Peak 2 (hCD73-his [3]) | MW Peak 1 (N-hCD73-his [4]) | Rh (N-hCD73-his [5]) | internalization EC50, Calu6 cells, 2 h (human CD73 on cells [6]) | internalization Ymax (% of 100 nM 11F11), Calu6 cells (human CD73 on cells [6]) | % internalization, Calu6 cells (human CD73 on cells [1]) | % internalization, H2030 cells (human CD73 on cells [1]) | % internalization, HCC15 cells (human CD73 on cells [1]) | internalization T1/2, Calu6 cells (human CD73 on cells [1]) | internalization T1/2, H228 cells (human CD73 on cells [1]) | internalization T1/2, H2030 cells (human CD73 on cells [1]) | internalization T1/2, HCC15 cells (human CD73 on cells [1]) | Kd (N-hCD73-his [7]) | koff (N-hCD73-his [7]) | kon (N-hCD73-his [7]) | Rh (hCD73-his [8]) | MW Peak 1 (hCD73-his [9]) | MW Peak 2 (hCD73-his [9]) | further results
1 | B1 | -47% | 10.8 nm | 530 kDa | 170 kDa | 5.8 nm |  |  |  |  |  |  |  |  |  |  |  |  |  |  |  | 
2 | B2 | 93% | 2.9 nm | 3400 kDa | 210 kDa | 6.5 nm | 0.67 nM | 99% | 91% | 85% | 91% | 3 min | 9.7 min | 3.3 min | 2.6 min | 6.2 nM and 8.3 nM | 0.0014 s⁻¹ and 0.0018 s⁻¹ | 220000 M⁻¹ s⁻¹ | 23.9 nm | 2200 kDa | 310 kDa | MW Peak 2 (N-hCD73-his [4]): 150 kDa
3 | B3 | 92% |  |  |  |  | 0.87 nM | 99% | 91% | 87% | 91% | 3.1 min | 9.4 min | 4.3 min | 3 min | 5.7 nM and 6.8 nM | 0.0014 s⁻¹ and 0.0016 s⁻¹ | 240000 M⁻¹ s⁻¹ and 230000 M⁻¹ s⁻¹ | 25.6 nm | 2000 kDa | 320 kDa | MW Peak 3 (hCD73-his [9]): 390 kDa
4 | B4 |  |  |  |  |  |  |  |  |  |  |  |  |  |  |  |  |  |  |  |  | KDapparent (hCD40-Fc): < 1 nM
